Changes are numbered by the printed parent chain. Names may count otherwise. Like-named read-outs stand apart in the source and are kept apart here.

Data set [1] is classed as biochemical. As to conditions: read-out: Dihydrocoumarin KM.
The format of data set [2] is biochemical.
Data set [3] is classed as biochemical. As to conditions: read-out: 2-Naphthyl acetate KM.
The format of data set [4] is biochemical. The note with it: pH 8; for Km: read-out: KM(Paraoxon).
Data set [5] is classed as biochemical. As to conditions: read-out: KM for L-Hcy hydrolysis.
For data set [6] the following is noted: read-out: KM(PheAc); cited from earlier work.
For data set [7] the following is noted: read-out: Kd for the first (higher affinity) calcium; cited from earlier work.
For data set [8] the following is noted: read-out: KM for L-HcyT hydrolysis; cited from earlier work.
The conditions of data set [9]: read-out: KM(Paraoxon); cited from earlier work.
The format of data set [10] is biochemical. This is another data set of the same source.
Data set [11] is classed as biochemical. As to conditions: read-out: DEPCyC hydrolysis KM.
Setting [12] is: read-out: Phenylacetate hydrolysis KM.

B1: G1A5: first-round directly evolved PON1 variant, thioredoxin-fused; SEQ ID NO: 25 (DNA), 57 (protein) (protein)
chain: MAKLTALTLLGLGLALFDGQKSSFQTRFNVHREVTPVELPNCNLVKGIDNGSEDLEILPNGLAFISSGLKYPGIMSFDPDKSGKILLMDLNEEDPVVLELGITGNTLDISSFNPHGISTFIDEDNTVYLLVVNHPDSSSTVEVFKFQEKEKSLLHLKTIRHKLLPSVNDIVAVGPEHFYATNDHYFIDPYLKSWEMHLGLAWSFVTYYSPNDVRVVAEGFDFANGINISPDGKYVYIAELLAHKIHVYEKHANWTLTPLKSLDFNTLVDNISVDPVTGDLWVGCHPNGMRIFYYDPENPPGSEVLRIQNILSKEPKVTVVYAENGTVLQGTTVASVYKGKLLIGTVFHKALYCEL
modifications: thioredoxin-fused; In vitro evolved PON variant G1A5
By Km is commonly meant the substrate concentration at which the rate is half of its maximum. On to B1, for which the Km turned out to be 120 µM in [1]; 390 µM in [2] (pH 8, read-out: KM(PheAc)); 80 µM in [3]; 85 µM in data set [4]. Also, the “kcat (PheAc)” value in data set [2] (pH 8) was determined as 833 s⁻¹. In data set [4], the “kcat(Paraoxon)” value was determined as 1.16 s⁻¹.

B2: G3H8: third-round rPON1 variant, unmodified 355 aa protein without tags; SEQ ID NO: 29 (DNA), 61 (protein) (protein)
chain: MAKLTAPTLLGLGLALFDRQKSSFQTRFNVHREVTPVELPNCNLVKGIDNGSEDLEILPNGLAFISSGLKYPGIMSFDPDKSGKILLMDLNEEDPVVLELGITGSTFDLSSFNPHGISTFTDEDNTVYLLVVNHPDSSSTVEVFKFQEKERSLLHLKTIRHKLLPSVNDIVAVGPESFYATNDHYFADPYLKSWEMHLGLAWSFVTYYSPNDVRVVAEGFDFANGINISPDGKYVYIAELLAHKIHVYEKHANWTLTPLKSLDFNTLVDNISVDPVTGDLWVGCHPNGMRIFYYDPENPPGSEVLRIQDILSKEPKVTVVYAENGTVLQGSTVAAVYKGKLLIGTVFHKALYCDL
modifications: In vitro evolved PON variant G3H8
Consider B2, for which the Km was 76 µM in [1]; around 19000 µM in data set [5]; 320 µM in data set [2] (pH 8, read-out: KM(PheAc)); 110 µM in data set [3]; 88 µM in data set [4]. For the same molecule, the “kcat (PheAc)” value in data set [2] (pH 8) was determined as 1018 s⁻¹. In addition, the “kcat(Paraoxon)” value in data set [4] was 1.2 s⁻¹.

B3: hPON1: wild-type human PON1; kinetic values for enzyme purified from sera; SEQ ID NO: 24, 36 (protein, listed as Homo sapiens)
chain: MAKLIALTLLGMGLALFRNHQSSYQTRLNALREVQPVELPNCNLVKGIETGSEDLEILPNGLAFISSGLKYPGIKSFNPNSPGKILLMDLNEEDPTVLELGITGSKFDVSSFNPHGISTFTDEDNAMYLLVVNHPDAKSTVELFKFQEEEKSLLHLKTIRHKLLPNLNDIVAVGPEHFYGTNDHYFLDPYLQSWEMYLGLAWSYVVYYSPSEVRVVAEGFDFANGINISPDGKYVYIAELLAHKIHVYEKHANWTLTPLKSLDFNTLVDNISVDPETGDLWVGCHPNGMKIFFYDSENPPASEVLRIQNILTEEPKVTQVYAENGTVLQGSTVASVYKGKLLIGTVFHKALYCEL
For orientation: Kd means the concentration at which binding is half-saturated. B3: the results for the Km in data set [6], in data set [8] and in data set [9] were 420 µM, 23000 µM and 540 µM, respectively. The Kd in data set [7] is 360 nM.

B4: 7HY: G3C9-derived PON1 variant, mutations F292V, Y293D, I109M; SEQ ID NO: 74, 75 (protein)
chain: MAKLTALTLLGLGLALFDGQKSSFQTRFNVHREVTPVELPNCNLVKGVDNGSEDLEILPNGLAFISSGLKYPGIMSFDPDKSGKILLMDLNEEDPVVLELGITGNTLDMSSFNPHGISTFTDEDNTVYLLVVNHPDSSSTVEVFKFQEEEKSLLHLKTIRHKLLPSVNDIVAVGPEHFYATNDHYFADPYLKSWEMHLGLAWSFVTYYSPNDVRVVAEGFDFANGINISPDGKYVYIAELLAHKIHVYEKHANWTLTPLKSLDFDTLVDNISVDPVTGDLWVGCHPNGMRIVDYDPKNPPGSEVLRIQDILSEEPKVTVVYAENGTVLQGSTVAAVYKGKLLIGTVFHKALYCEL
modifications: In vitro evolved PON variant 7HY
For the molecule B4, the “shift in substrate selectivity” value in data set [10] is given as “up to 4,600 fold”.

B5: G3C9: third-round highly soluble rPON1 variant without tags, wt-like activity; SEQ ID NO: 55 (DNA), 56 (protein) (protein)
chain: B4 chain with M109I, V292F, D293Y
modifications: In vitro evolved PON variant G3C9
Regarding B5, the Km in data set [11] came out at 70 µM; in [2] (pH 8, read-out: KM(PheAc)), 330 µM; in [2] (setting [12]) it was 330 µM; in [4], 94 µM. Moreover, in [2] (pH 8), the “kcat (PheAc)” value came out at 789 s⁻¹. The “kcat(Paraoxon)” value in data set [4] amounted to 1.1 s⁻¹.

B6: G3C9.49: G3C9 variant with mutations G19R, S193P, N287D and V346A; SEQ ID NO: 64, 65 (protein)
chain: B4 chain with G19R, M109I, S193P, N287D, V292F, D293Y, V346A
modifications: In vitro evolved PON variant G3C9.49
Take B6: the Km turned out to be 80 µM in [11] and 300 µM in [2] (setting [12]).

B7: RabPON1: wild-type rabbit PON1, GenBank Accession No. AF220943 (protein, listed as Rattus norvegicus)
chain: MAKLLGLTLVGLVLALYKNHRSSYQTRLNAFREVTPVDLPNCTLVKGIEAGAEDLEILPNGLTFFSTGLKYPGIKSFDPSKPGKILLMDLNEKEPAVSELAIMGNTLDMSSFNPHGISTFIDEDNTVYLLVVSHPDSSSTVEVFKFQEEERSLLHLKTITHELLPSINDIAAVGPESFYATNDHYFADPYLRSWEMYLGLSWSNVVYYSPDKVRVVADGFDFANGIGISLDGKYVYIAELLAHKIHVYEKHANWTLTPLKVLSFDTLVDNISVDPVTGDLWVGCHPNGMRIFFYDSENPPGSEVLRIQSILSEDPKVTVVYAENGTVLQGTTVAAVYKGKLLIGTVFHRALCCDL
B7: the Kd in [7] is 50 nM.

(Values after patent publication US7786071B2 (priority 2003, dated 2010).)
